Experimental data taken from patent US20120077731A1 (Ablynx, published 2012).
Values joined by “and” are separate entries in the source; they are usually repeats but may differ in a detail not shown here. Equal entries are not always repeated. One block for each binder: values may come before it.

Legend:
Human soluble IL-6R [1] = biological target: T1, Human soluble IL-6R (human, UniProt P08887 20-358); assay: SPR Biacore 3000, IL-6R amine-coupled to CM5
T1 construct: Soluble recombinant form; biotinylated in some assays; also called hIL-6R; human IL-6R
T1 sequence (looked up): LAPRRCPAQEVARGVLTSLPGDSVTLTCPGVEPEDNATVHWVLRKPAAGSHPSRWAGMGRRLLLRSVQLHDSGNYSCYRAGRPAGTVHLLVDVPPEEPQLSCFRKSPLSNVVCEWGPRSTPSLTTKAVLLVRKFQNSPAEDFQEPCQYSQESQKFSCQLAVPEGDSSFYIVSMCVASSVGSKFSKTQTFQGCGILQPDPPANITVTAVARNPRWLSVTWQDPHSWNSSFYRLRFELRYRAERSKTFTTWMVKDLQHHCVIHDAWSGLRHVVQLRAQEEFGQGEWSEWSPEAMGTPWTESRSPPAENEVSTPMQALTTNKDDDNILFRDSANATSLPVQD
Procedure: (§1) Nanobodies were injected at 5 different concentrations between 1 and 50 nM. Flow rate was 45 μl/min in all experiments. Association and dissociation phase were 3 and 10 min, respectively. The chip was regenerated using Glycine/HCl pH 1.5.

[2] = biological target: T2, Human membrane IL-6R on cells (human, UniProt P08887 20-468); assay: cell-based or functional assay
T2 sequence (looked up): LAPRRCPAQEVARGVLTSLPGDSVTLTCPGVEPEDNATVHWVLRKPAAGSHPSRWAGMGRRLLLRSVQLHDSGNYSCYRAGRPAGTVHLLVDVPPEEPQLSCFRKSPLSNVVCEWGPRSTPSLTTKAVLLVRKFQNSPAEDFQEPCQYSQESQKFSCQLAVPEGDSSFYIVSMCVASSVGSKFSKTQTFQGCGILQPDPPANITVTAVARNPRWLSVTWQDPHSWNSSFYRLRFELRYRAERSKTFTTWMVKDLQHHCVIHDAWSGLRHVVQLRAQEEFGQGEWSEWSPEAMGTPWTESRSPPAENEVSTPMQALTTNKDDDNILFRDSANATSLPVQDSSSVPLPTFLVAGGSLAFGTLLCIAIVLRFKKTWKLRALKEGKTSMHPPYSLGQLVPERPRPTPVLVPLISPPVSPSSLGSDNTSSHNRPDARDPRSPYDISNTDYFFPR

[3] = biological target: T2, Human membrane IL-6R on cells; assay: cell-based or functional assay; remark: listed apart in the source
Human soluble IL-6R [4] = biological target: T1, Human soluble IL-6R; assay: Alphascreen, inhibition of bio-IL-6 binding to IL-6R
Procedure: (§2) Finally streptavidin donor beads were added and after 1 hour incubator the plate was read on the Envision microplate reader.

Human soluble IL-6R [5] = biological target: T1, Human soluble IL-6R; assay: inhibition of the IL-6/IL-6R interaction, summary table C-13
Procedure: as §2

Human soluble IL-6R [6] = biological target: T1, Human soluble IL-6R; assay: Alphascreen IL-6/IL-6R competition (IL-6R 0.3 nM, bio-IL-6 3 nM); row EC50 of the fit table, axis [competitor], M; blocked ligand IL-6
Human soluble IL-6R [7] = biological target: T1, Human soluble IL-6R; assay: competition for IL-6R, competitor reference Fab, summary table C-13
Human soluble IL-6R [8] = biological target: T1, Human soluble IL-6R; assay: Alphascreen, 100 nM Nanobody, 0.4 nM bio-IL-6R; competitor: reference Fab
Cyno IL-6R = biological target: T3, Cyno IL-6R (cynomolgus monkey, UniProt A0A2K5WN54 60-396); assay: SPR Biacore 3000, cyno IL-6R amine-coupled to CM5
T3 construct: also called cynomolgus monkey IL-6R; recombinant cyno sIL-6R
T3 sequence: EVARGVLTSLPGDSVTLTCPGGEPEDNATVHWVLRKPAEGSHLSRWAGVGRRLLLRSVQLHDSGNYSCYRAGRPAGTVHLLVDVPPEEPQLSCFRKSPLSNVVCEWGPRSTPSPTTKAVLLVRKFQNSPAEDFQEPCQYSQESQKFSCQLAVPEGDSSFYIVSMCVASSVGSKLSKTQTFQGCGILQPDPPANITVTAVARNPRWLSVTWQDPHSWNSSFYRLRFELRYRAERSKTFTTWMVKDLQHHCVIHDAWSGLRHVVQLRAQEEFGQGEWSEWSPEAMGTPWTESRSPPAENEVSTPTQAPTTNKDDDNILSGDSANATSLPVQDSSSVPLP
Procedure: Remaining reactive groups were inactivated. […] Each sample was injected for 4 min at a flow rate of 45 μl/min to allow for binding to chip-bound antigen. Next, binding buffer without Nanobody was sent over the chip at the same flow rate to allow for dissociation of bound Nanobody.

[9] = biological target: T2, Human membrane IL-6R on cells; assay: cell-based or functional assay; remark: listed apart in the source
[10] = biological target: T2, Human membrane IL-6R on cells; assay: cell-based or functional assay; remark: listed apart in the source
Human soluble IL-6R [11] = biological target: T1, Human soluble IL-6R; assay: Alphascreen IL-6/IL-6R competition with purified Nanobody; row EC50 of the table, axis [inhibitor], M; blocked ligand IL-6
Human soluble IL-6R [12] = biological target: T1, Human soluble IL-6R; assay: summary table C-13 of Nanobody characteristics, Kd on IL-6R
Procedure: as §1

Human soluble IL-6R [13] = biological target: T1, Human soluble IL-6R; assay: Biacore off-rate, periplasmic extract
Human soluble IL-6R [14] = biological target: T1, Human soluble IL-6R; assay: Biacore, binding to IL-6R (parent value)
Mouse IL-6R = biological target: T4, Mouse IL-6R (mouse, UniProt P22272 20-364, limits assumed); assay: ELISA: plate coated with 1 µg/ml mouse IL-6R, 500 nM Nanobody, anti-myc + anti-mouse-HRP
T4 construct: also called mouse sIL-6R
T4 sequence (looked up): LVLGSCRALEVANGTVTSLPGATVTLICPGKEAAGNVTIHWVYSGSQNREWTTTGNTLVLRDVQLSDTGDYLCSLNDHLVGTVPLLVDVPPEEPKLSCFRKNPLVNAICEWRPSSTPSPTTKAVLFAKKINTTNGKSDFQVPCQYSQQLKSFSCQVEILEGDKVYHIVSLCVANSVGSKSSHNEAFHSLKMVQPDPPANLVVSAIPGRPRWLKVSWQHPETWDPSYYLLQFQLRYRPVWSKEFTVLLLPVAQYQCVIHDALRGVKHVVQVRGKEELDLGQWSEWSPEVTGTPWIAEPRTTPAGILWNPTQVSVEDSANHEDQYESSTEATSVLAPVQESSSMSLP
Procedure: Detection was performed with anti-myc and anti-mouse-HRP as first and second antibody respectively.

Human soluble IL-6R [15] = biological target: T1, Human soluble IL-6R; assay: Alphascreen, inhibition of bio-IL-6 binding to IL-6R; remark: listed apart in the source
Procedure: Finally streptavidin donor beads were added and after 1 hour incubation the plate was read on the Envision microplate reader. Parental clones were included as reference.

Human soluble IL-6R [16] = biological target: T1, Human soluble IL-6R; assay: Biacore, binding to IL-6R

B1: IL6R03 (VHH)
VHH: EVQLVESGGGLVQAGGSLRLSCAASGSIFKVNAMGWYRQAPGKQRELVAGIISGGSTNYADSVKGRLTISRDNAKNTVYLQMNSLKPEDTAVYYCSFVTTNSDYDLGRDYWGQGTQVTVSS
notes: also called PMP31A4; not shown: C-terminal c-myc and (His)6 tags
- Kd (Human soluble IL-6R [1]): 3 nM
- koff (Human soluble IL-6R [1]): 0.00147 s⁻¹ and 0.0016 s⁻¹
- kon (Human soluble IL-6R [1]): 484000 M⁻¹ s⁻¹
- IC50 (nM) + HSA, XG-1 cell proliferation [2]: 17.5 nM
- IC50 (nM), XG-1 cell proliferation [2]: 16.2 nM
- IC50 (nM), TF1 cell proliferation [3]: 62.1 nM
- IC50 (Human soluble IL-6R [4]): 0.716 nM
- IC50 (Human soluble IL-6R [5]): 0.72 nM
- IC50 (Human soluble IL-6R [6]): 0.187 nM
- Ref Fab competition (%) (Human soluble IL-6R [7]): 5%
- Residual reference-Fab binding to IL-6R (%) (Human soluble IL-6R [8]): 5%
- Kd (Cyno IL-6R): 4.4 nM
- koff (Cyno IL-6R): 0.00164 s⁻¹
- kon (Cyno IL-6R): 370000 M⁻¹ s⁻¹
- IC50 (nM) XG-1 [9]: 16.2 nM
- IC50 values (nM), XG-1 assay [10]: 17 nM
- IC50 (Human soluble IL-6R [11]): 0.105 nM
- Kd (Human soluble IL-6R [12]): 3 nM
- koff (Human soluble IL-6R [13]): 0.0016 s⁻¹
- Kd (Human soluble IL-6R [14]): 3 nM
- binding result (Mouse IL-6R): no binding (tested: 500 nM)

B2: IL6R63 (VHH)
VHH: EVQLVESGGGLVQPGGSLRLSCAASGSIFKVNAMGWYRQAPGKGRELVAGIISGGSTNYADSVKGRLTISRDNAKNTLYLQMNSLRPEDTAVYYCSFVTTNSDYDLGRDYWGQGTLVTVSS
- fold difference of IC50 to IL6R03 (Human soluble IL-6R [15]): ~4 fold
- Kd (Human soluble IL-6R [16]): 3.7 nM
- koff (Human soluble IL-6R [16]): 0.00365 s⁻¹
- kon (Human soluble IL-6R [16]): 990000 M⁻¹ s⁻¹
- IC50 (Human soluble IL-6R [6]): 0.65 nM

Further binders by falling IC50 (Human soluble IL-6R [6]), results first:

- fold difference of IC50 to IL6R03 (Human soluble IL-6R [15]): ≤ 2 fold
- Kd (Human soluble IL-6R [16]): 2 nM
- koff (Human soluble IL-6R [16]): 0.0017 s⁻¹
- kon (Human soluble IL-6R [16]): 850000 M⁻¹ s⁻¹
- IC50 (Human soluble IL-6R [6]): 0.336 nM
B4: IL6R61 (VHH)
VHH: EVQLVESGGGLVQPGGSLRLSCAASGSIFKVNAMGWYRQAPGKGRELVAGIISGGSTNYADSVKGRLTISRDNAKNTVYLQMNSLRPEDTAVYYCSFVTTNSDYDLGRDYWGQGTLVTVSS

- fold difference of IC50 to IL6R03 (Human soluble IL-6R [15]): ≤ 2 fold
- Kd (Human soluble IL-6R [16]): 2.2 nM
- koff (Human soluble IL-6R [16]): 0.00207 s⁻¹
- kon (Human soluble IL-6R [16]): 929000 M⁻¹ s⁻¹
- IC50 (Human soluble IL-6R [6]): 0.28 nM
B5: IL6R62 (VHH)
VHH: EVQLVESGGGLVQPGGSLRLSCAASGSIFKVNAMGWYRQAPGKGRELVAGIISGGSTNYADSVKGRFTISRDNAKNTVYLQMNSLRPEDTAVYYCSFVTTNSDYDLGRDYWGQGTLVTVSS

- fold difference of IC50 to IL6R03 (Human soluble IL-6R [15]): ≤ 2 fold
- koff (Human soluble IL-6R [16]): 0.001 s⁻¹
- IC50 (Human soluble IL-6R [6]): 0.108 nM
B3: IL6R64 (VHH)
VHH: EVQLVESGGGLVQPGGSLRLSCAASGSIFKVNAMGWYRQAPGKGRELVAGIISGGSTNYADSVKGRLTISRDNAKNTVYLQMNSLRPEDTAVYYCAFVTTNSDYDLGRDYWGQGTLVTVSS
